Residue numbers refer to the chain shown, from its start.
Tested on: luciferase expression
Test: Firefly luciferase assay of HEK 293 cells transfected with riboswitch constructs, treated with guanosine or guanine
Type: cell-based
Conditions: for induction fold of luciferase activity (presence / absence of guanosine): 500 μM guanosine vs DMSO solvent control; for basal luciferase expression reduced by % versus control construct pFLuc / basal level luciferase expression, % of the pFLuc control vector: absence of guanine treatment; for basal luciferase expression reduced by % versus control construct pFLuc: given as 'reduced by'; for fold induction by guanine compared with other constructs: 500 μM guanine; for basal level luciferase expression in the absence of guanine (comparison in words): no guanine, compared with control or parent construct; for induction fold of luciferase activity (presence / absence of guanine): 500 μM guanine vs NaOH solvent control
Method: Transfection and aptamer ligand treatment: 3.5×10^4 HEK 293 cells were plated in a 96-well flat bottom plate the day before transfection. Plasmid DNA (500 ng) was added to a tube or a 96-well U-bottom plate. Separately, TransIT-293 reagent (Minis; 1.4 μl) was added to 50 μl opti-mem I media (Life Technologies), and allowed to sit for 5 minutes at room temperature (“RT”). Then, 50 μl of this diluted transfection reagent was added to the DNA, mixed, and incubated at RT for 20 min. Finally, 7 μl of this solution was added to a well of cells in a 96-well plate. Four hours after transfection, the media was aspirated, and new media was added with (i) DMSO (0.5%) or 500 μM guanosine; or (ii) NaOH (2 mM) as solvent control or 500 μM guanine. The induction fold was expressed as the quotient of luciferase activity obtained in the presence of aptamer ligand divided by the value obtained in the absence of the aptamer ligand.
Firefly luciferase assay of cultured cells: Twenty-four hours after media change, plates were removed from the incubator, and equilibrated to RT for several minutes on a lab bench, then aspirated. Glo-lysis buffer (Promega, […]) was added, and the plates allowed to remain at RT for at least 5 minutes. Then, the well contents were mixed by 50 μL trituration, and 20 μL of each sample was mixed with 20 μL of bright-glo reagent (Promega) that had been diluted to 10% in glo-lysis buffer. 96 wells were spaced on an opaque white 384-well plate. Following a 5-min incubation at RT, luminescence was measured using Tecan machine with 500 mSec read time. The luciferase activity was expressed as mean relative light unit (RLU)±S.D.

B1: ATA_Gua_1: luciferase construct, SEQ ID NO: 1; xpt-guanine aptamer linked to 9 bp effector stem-loop (GAAA loop) embedding AATAAA of SV40 early polyA (nucleic acid)
DNA: AAGGCCAAGAAGGGCGGAAAGATCGCCGTGTAAGCCATACCACATTTGTAGAGGTTTTACTTGCTTTAAAAAACCTCCCACACCTCCCCCTGAACCTGAAACATAAAATGAATGCAATTGTTGTTGTTAACTTGTTTATTGCAGCTTATAATGGTTACAAATAAAGCAATAGCATCACAAATTTCTAAAGGTATAATCGCGTGGATATGGCACGCAAGTTTCTACCGGGCACCGTAAATGTCCGACTACCTTTATTTCGAAAGAAATAAAGCATTTTTTTCACTGCATTCTAGTTGTGGTTTGTCCAAACTCATCAATGTATCTTAACGCGT
**Q.** B1 was tested. Which “induction fold of luciferase activity (presence / absence of guanosine)” value did it give?
**A.** 6.7 fold

**Q.** What about the “basal luciferase expression reduced by % versus control construct pFLuc” value of the same molecule?
**A.** 45%

B2: Stbl_ATA_Gua_1: SEQ ID NO: 14; ATA_Gua_1 with GAAA loop replaced by more stable TTCG loop (nucleic acid)
DNA: B1 DNA with G259T, A260T, A261C, A262G
**Q.** For B2, which “fold induction by guanine compared with other constructs” value is on record?
**A.** higher induction fold

**Q.** And the “basal level luciferase expression in the absence of guanine (comparison in words)” value?
**A.** lower luciferase activity

B3: gaat_ATA_Gua_1: SEQ ID NO: 15; ATA_Gua_1 variant containing GAAT loop (nucleic acid)
DNA: B1 DNA with A262T
**Q.** B3 was tested. Which “fold induction by guanine compared with other constructs” value did it give?
**A.** slightly lower fold induction

**Q.** What about the “basal level luciferase expression in the absence of guanine (comparison in words)” value of the same molecule?
**A.** higher basal level luciferase

B4: SPA_ATA_Gua: SEQ ID NO: 10; xpt-guanine aptamer linked to stem-loop embedding AATAAA of synthetic polyA sequence (nucleic acid)
DNA: AAGGCCAAGAAGGGCGGAAAGATCGCCGTGTAAGGATCCAAGCTTATCGATACCGTCGACCTCGAGGGCCCAGATCTGCGGCAAAAGGTATAATCGCGTGGATATGGCACGCAAGTTTCTACCGGGCACCGTAAATGTCCGACTACCTTTTATTGGAAACAATAAAAGATCTTTATTTTCATTAGATCTGTGTGTTGGTTTTTTGTGTGTCTAGAAATAATTCTTACT
**Q.** For B4, which “basal level luciferase expression in the absence of guanine (comparison in words)” value is on record?
**A.** did not result in reduced luciferase activity

B5: ATA_DSE_Gua: SEQ ID NO: 16; pFLuc construct containing both ATA_Gua_1 and DSE_Gua_1 switches (nucleic acid)
DNA: AAGGCCAAGAAGGGCGGAAAGATCGCCGTGTAAGCCATACCACATTTGTAGAGGTTTTACTTGCTTTAAAAAACCTCCCACACCTCCCCCTGAACCTGAAACATAAAATGAATGCAATTGTTGTTGTTAACTTGTTTATTGCAGCTTATAATGGTTACAAATAAAGCAATAGCATCACAAATTTCTAAAGGTATAATCGCGTGGATATGGCACGCAAGTTTCTACCGGGCACCGTAAATGTCCGACTACCTTTATTTCGAAAGAAATAAAGCATTTTTTTCACTGCATTCTAGTTGTGGTTTGTCCGAAAGGACAAACCATAATCGCGTGGATATGGCACGCAAGTTTCTACCGGGCACCGTAAATGTCCGACTGGTTTGTAAACTCATCAATGTATCTTAACGCGT
**Q.** Which “induction fold of luciferase activity (presence / absence of guanine)” value (“induction fold … (presence / absence of guanine)” for short) does the source give for B5 here?
**A.** approximately 2.1 fold

**Q.** What about the “basal level luciferase expression, % of the pFLuc control vector” value of the same molecule?
**A.** 20%

**Q.** What about the “basal level luciferase expression in the absence of guanine (comparison in words)” value of the same molecule?
**A.** further decreases the basal level

B6: mtSPA_ATA_Gua: SEQ ID NO: 13; xpt-guanine aptamer with 9 bp stem embedding AATAAA of mtSPA, 2 GC base pairs added (nucleic acid)
DNA: AAGGCCAAGAAGGGCGGAAAGATCGCCGTGTAAGGATCCAAGCTTATCGATACCGTCGACCTCGAGGGCCCAGATCTGCGGAAAAGGTATAATCGCGTGGATATGGCACGCAAGTTTCTACCGGGCACCGTAAATGTCCGACTACCTTTTATTGCGAAAGCAATAAAATATCTTTATTTTCATTACATCTGTGTGTTGGTTTTTTGTGTGTCTAGAAATAATTCTTACT
**Q.** B6 was tested. Which “induction fold … (presence / absence of guanine)” value did it give?
**A.** 1.7 fold

**Q.** What about the “basal level luciferase expression in the absence of guanine (comparison in words)” value of the same molecule?
**A.** decreased

B7: SPA_DSE_Gua: SEQ ID NO: 11; xpt-guanine aptamer linked to 3′ end of stem-loop embedding DSE of synthetic polyA (nucleic acid)
DNA: AAGGCCAAGAAGGGCGGAAAGATCGCCGTGTAAGGATCCAAGCTTATCGATACCGTCGACCTCGAGGGCCCAGATCTGCGGCCGCAATAAAAGATCTTTATTTTCATTAGATCTGTGTGTTGGTTTTTTGTGTGTCGAAAGACACACAATATAATCGCGTGGATATGGCACGCAAGTTTCTACCGGGCACCGTAAATGTCCGACTATTGTGTGGAAATAATTCTTACT
**Q.** With B7 as the molecule, how does the “induction fold … (presence / absence of guanine)” value read?
**A.** 1.9 fold

B8: DSE_Gua_1: SEQ ID NO: 5; xpt-guanine aptamer linked to 3′ end of 9 bp stem-loop embedding DSE of SV40 early polyA (nucleic acid)
DNA: AAGGCCAAGAAGGGCGGAAAGATCGCCGTGTAAGCCATACCACATTTGTAGAGGTTTTACTTGCTTTAAAAAACCTCCCACACCTCCCCCTGAACCTGAAACATAAAATGAATGCAATTGTTGTTGTTAACTTGTTTATTGCAGCTTATAATGGTTACAAATAAAGCAATAGCATCACAAATTTCACAAATAAAGCATTTTTTTCACTGCATTCTAGTTGTGGTTTGTCCGAAAGGACAAACCATAATCGCGTGGATATGGCACGCAAGTTTCTACCGGGCACCGTAAATGTCCGACTGGTTTGTAAACTCATCAATGTATCTTAACGCGT
**Q.** With B8 as the molecule, how does the “basal luciferase expression reduced by % versus control construct pFLuc” value read?
**A.** 35%

B9: DSE_Gua_2: SEQ ID NO: 6; xpt-guanine aptamer linked to 10 bp stem-loop embedding DSE (nucleic acid)
DNA: AAGGCCAAGAAGGGCGGAAAGATCGCCGTGTAAGCCATACCACATTTGTAGAGGTTTTACTTGCTTTAAAAAACCTCCCACACCTCCCCCTGAACCTGAAACATAAAATGAATGCAATTGTTGTTGTTAACTTGTTTATTGCAGCTTATAATGGTTACAAATAAAGCAATAGCATCACAAATTTCACAAATAAAGCATTTTTTTCACTGCATTCTAGTTGTGGTTTGTCCGAAAGGACAAACCAATAATCGCGTGGATATGGCACGCAAGTTTCTACCGGGCACCGTAAATGTCCGACTTGGTTTGAAACTCATCAATGTATCTTAACGCGT
**Q.** With B9 as the molecule, how does the “induction fold of luciferase activity (presence / absence of guanosine)” value read?
**A.** 3.7 fold

B10: DSE_Gua_4: SEQ ID NO: 8; xpt-guanine aptamer linked to 14 bp stem-loop embedding DSE (nucleic acid)
DNA: AAGGCCAAGAAGGGCGGAAAGATCGCCGTGTAAGCCATACCACATTTGTAGAGGTTTTACTTGCTTTAAAAAACCTCCCACACCTCCCCCTGAACCTGAAACATAAAATGAATGCAATTGTTGTTGTTAACTTGTTTATTGCAGCTTATAATGGTTACAAATAAAGCAATAGCATCACAAATTTCACAAATAAAGCATTTTTTTCACTGCATTCTAGTTGTGGTTTGTCCGAAAGGACAAACCACAACATAATCGCGTGGATATGGCACGCAAGTTTCTACCGGGCACCGTAAATGTCCGACTGTTGTGGAAACTCATCAATGTATCTTAACGCGT
**Q.** How did the “luciferase activity in the absence of aptamer ligand guanosine (comparison in words)” value (DMSO treated, compared among constructs and with pFLuc-SV40) turn out when B10 was run?
**A.** lowest

**Q.** And the “basal level luciferase expression, % of the pFLuc control vector” value?
**A.** ~80%
